Assay [1] deals with T1, CD300c antigen (11832-H08H, Sino Biological) (UniProt Q08708 21-183).
T1 construct: Bought recombinant antigen coated on ELISA plates; the same entry is used for it
T1 sequence (looked up): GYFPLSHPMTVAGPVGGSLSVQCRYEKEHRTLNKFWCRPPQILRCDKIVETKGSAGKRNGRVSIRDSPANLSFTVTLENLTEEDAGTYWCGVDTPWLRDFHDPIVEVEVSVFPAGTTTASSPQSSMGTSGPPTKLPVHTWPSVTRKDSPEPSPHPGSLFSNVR
The experiment in a line: binding ELISA, CD300c antigen coated.

Assay [2] has as its target T2, mouse CD300c antigen (mouse).
T2 sequence (A2A7V7 whole entry, looked up): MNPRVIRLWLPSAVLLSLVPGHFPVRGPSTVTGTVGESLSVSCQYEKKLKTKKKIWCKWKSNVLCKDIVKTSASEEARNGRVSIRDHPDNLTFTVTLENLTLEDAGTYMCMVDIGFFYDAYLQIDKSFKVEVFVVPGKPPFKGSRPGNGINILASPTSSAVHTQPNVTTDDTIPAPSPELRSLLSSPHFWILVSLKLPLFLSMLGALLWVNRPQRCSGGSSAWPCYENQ
The experiment in a line: cell-based or functional assay.

Assay [3] has as its target T3, CD300a antigen (12449-H08H, Sino Biological) (UniProt Q9UGN4 18-180).
T3 construct: Bought recombinant antigen
T3 sequence (looked up): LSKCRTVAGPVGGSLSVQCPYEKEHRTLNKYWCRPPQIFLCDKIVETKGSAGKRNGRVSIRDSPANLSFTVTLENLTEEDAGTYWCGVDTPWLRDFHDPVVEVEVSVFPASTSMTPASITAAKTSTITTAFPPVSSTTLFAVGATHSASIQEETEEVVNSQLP
In words: binding ELISA, antigen coated on plate.

B1: anti-CD300c monoclonal antibody CL10 (antibody, V domains shown)
VH: EVQLLESGGGLVQPGGSLRLSCAASGFTFSSYGMHWVRQAPGKGLEWVSAISGSGGSTYYADSVKGRFTISRDNSKNTLYLQMNSLRAEDTAVYYCASGYGLMDVWGQGTLVTVSS
VL: QSVLTQPPSASGTPGQRVTISCTRSSGIIASNYVQWYQQLPGTAPKLLIYRNNQRPSGVPDRFSGSKSGTSASLAISGLRSEDEADYYCSSYAGNNNLVFGGGTKLTVL
notes: expressed as heavy and light chains in 293T cells, protein A purified
Take B1: the EC50 in assay [1] is no more than 0.2 µg/mL. Besides, in assay [2], the “cancer cell proliferation inhibitory effect, CT26 mouse colorectal cancer cell line, CCK-8, 10 ug/mL antibody, 5 days” value worked out at 15%.

B2: anti-CD300c monoclonal antibody CK2 (antibody, V domains shown)
VH: EVQLLESGGGLVQPGGSLRLSCAASGFTFSSYGMHWVRQAPGKGLEWVSAISGSGTSIYYADSVKGRFTISRDNSKNTLYLQMNSLRAEDTAVYYCARGGTAFDYWGQGTLVTVSS
VL: EIVLTQSPGTLSLSPGERATLSCRASQRSDNYLAWYQQKPGQAPRLLIYDASNRATGIPDRFSGSGSGTDFTLTISRLEPEDFAVYYCQQSYSTPFTFGQGTKVETK
notes: as for B1
Consider B2, for which the concentration for a half-maximal effect (EC50) in assay [1] was no more than 0.2 µg/mL.

B3: anti-CD300c monoclonal antibody SK11 (antibody, V domains shown)
VH: RVQLLESGGGLVQPGGSLRLSCAASGFTFSTYGMHWVRQAPGKGLEWVSAISGSGGSTYYADSVKGRFTISRDNSKNTLYLQMNSLRAEDTAVYYCARGLSGLDYWGQGTLVTVSS
VL: EIVLTQSPGTLSLSPGERATLSCRSSQGITNYLAWYQQKPGQAPRLLIYDASNRATGIPDRFSGSGSGTDFTLTISRLEPEDFAVYYCQQSYSTPLTFGQGTKVEIK
notes: as for B1
In assay [1], B3 displayed a 50% effective concentration (EC50) of no more than 0.2 µg/mL.

B4: anti-CD300c monoclonal antibody CL6 (antibody, V domains shown)
VH: EVQLLESGGGLVQPGGSLRLSCAASGFTFSSYGMHWVRQAPGKGLEWVSAISGSGGSTYYADSVKGRFTISRDNSKNTLYLQMNSLRAEDTAVYYCAVSGAGRGFFDYWGQGTLVTVSS
VL: QSVLTQPPSASGTPGQRVTISCSGSSSNIGSNYVYWYQQLPGTAPKLLIYEDNKRPSGVPDRFSGSKSGTSASLAISGLRSEDEADYYCSSYTSSSTVIFGGGTKLTVL
notes: as for B1
On to B4, for which the 50% effective concentration (EC50) in assay [1] was no more than 0.2 µg/mL.

B5: anti-CD300c monoclonal antibody CL4 (antibody, V domains shown)
VH: RVQLLESGGGLVQPGGSLRLSCAASGFTFGSNYMSWVRQAPGKGLEWVSTISGSGTSTYYADSLKGRFTISRDNSKNTLYLQMNSLRAEDTAVYYCARGMWGMDVWGQGTLVTVSS
VL: QSVLTQPPSASGTPGQRVTISCTGKHRHTVNWYQLLPGTAPKLLIYLDSERPSGVPDRFSGSKSGTSASLAISGLRSEDEADYYCQSYDSSSVVFGGGTKLTVL
notes: as for B1
In the case of B5, the EC50 in assay [1] was no more than 0.2 µg/mL.

B6: anti-CD300c monoclonal antibody CK1 (antibody, V domains shown)
VH: EVQLLESGGGLVQPGGSLRLSCAASGFTFSRYAMTWVRQAPGKGLEWVSSMSGTGGTTYYADSVKGRFTISRDNSKNTLYLQMNSLRAEDTAVYYCARGAYGFDHWGQGTLVTVSS
VL: EIVLTQSPGTLSLSPGERATLSCRASQSIGNYLNWYQQKPGQAPRLLIYDASNLETGIPDRFSGSGSGTDFTLTISRLEPEDFAVYYCQQSSAIPYTFGQGTKVEIK
notes: Selected as scFv phage clone (kappa library); expressed from separate heavy and light chain vectors in 293T cells, purified on protein A
For B6, in assay [1], the EC50 was no more than 0.2 µg/mL.

B7: anti-CD300c monoclonal antibody SL18 (antibody, V domains shown)
VH: RVQLLESGGGLVQPGGSLRLSCAASGFTFSDYHMHWVRQAPGKGLEWVSTISSSGGYTYYAESVKSRFTISRDNSKNTLYLQMNSLRAEDTAVYYCARSIRLPLDYWGQGTLVTVSS
VL: QSVLTQPPSASGTPGQRVTISCSGNNIGSKGVHWYQQLPGTAPKLLIYEDSKRPSGVRDRFSGSKSGTSASLAISGLRSEDEADYYCQSYDSTKGVVFGGGTKLTVL
notes: as for B1
The molecule B7 returned an EC50 in assay [1] of no more than 0.2 µg/mL. In assay [2], the “cancer cell proliferation inhibitory effect, CT26 mouse colorectal cancer cell line, CCK-8, 10 ug/mL antibody, 5 days” value came out at 38%.

B8: anti-CD300c monoclonal antibody CL5 (antibody, V domains shown)
VH: RVQLLESGGGLVQPGGSLRLSCAASGFTFSSYAMHWVRQAPGKGLEWVSSISGGGYGTYYADSVKGRFTISRDNSKNTLYLQMNSLRAEDTAVYYCARSTVWAFDIWGQGTLVTVSS
VL: QSVLTQPPSASGTPGQRVTISCSGNNIGSKSVHWYQQLPGTAPKLLIYDVSKRPSERPDRFSGSKSGTSASLAISDLRSEDEADYYCQSFDSSGTWIFGGGTKLTVL
notes: as for B1
The molecule B8 had an EC50 in assay [1] of no more than 0.2 µg/mL.

B9: anti-CD300c monoclonal antibody CL7 (antibody, V domains shown)
VH: EVQLLESGGGLVQPGGSLRLSCAASGFTFSRYAMSWVRQAPGKGLEWVSAISGSGGSTYYADSVKGRFTISRDNSKNTLYLQMNSLRAEDTAVYYCARSSQGIFDIWGQGTLVTVSS
VL: QSVLTQPPSASGTPGQRVTISCSGNNIGTRRVHWYQQLPDTAPKLLIYSKNNRPSGVPDRFSGSKSGTSASLAISGLRSEDEADYYCAAWDDSLSGPVFGGGTKLTVL
notes: as for B1
As for B9, the concentration for a half-maximal effect (EC50) in assay [1] was no more than 0.2 µg/mL. The “cancer cell proliferation inhibitory effect, CT26 mouse colorectal cancer cell line, CCK-8, 10 ug/mL antibody, 5 days” value in assay [2] worked out at 66%. Further, the binding result in assay [3] is “no binding”.

B10: anti-CD300c monoclonal antibody CL9 (antibody, V domains shown)
VH: EVQLLESGGGLVQPGGSLRLSCAASGFTFSSYYWSWVRQAPGKGLEWVSAISGSGGSTYYADSVKGRFTISRDNSKNTLYLQMNSLRAEDTAVYYCARIDVYGFDIWGQGTLVTVSS
VL: QSVLTQPPSASGTPGQRVTISCSGSTSNIGTNYVYWYQQLPGTAPKLLIYDNNNRPSGVPDRFSGSKSGTSASLAISGLRSEDEADYYCQTWDSSTDVVFGGGTKLTVL
notes: as for B1
In assay [1], B10 displayed a 50% effective concentration (EC50) of no more than 0.2 µg/mL.

B11: anti-CD300c monoclonal antibody SK13 (antibody, V domains shown)
VH: RVQLLESGGGLVQPGGSLRLSCAASGFTFSDYAMSWVRQAPGKGLEWVSSISSSSSYIYYTDSVKGRFTISRDNSKNTLYLQMNSLRAEDTAVYYCARGGYGFDYWGQGTLVTVSS
VL: EIVLTQSPGTLSLSPGERATLSCRASQSISSYLNWYQQKPGQAPRLLIYSASSRPQGIPDRFSGSGSGTDFTLTISRLEPEDFAVYYCQQYDDLPFTFGQGTKVEIK
notes: as for B1
In turn, B11 returned an EC50 in assay [1] of no more than 0.2 µg/mL.

B12: anti-CD300c monoclonal antibody SK17 (antibody, V domains shown)
VH: EVQLLESGGGLVQPGGSLRLSCAASGFTFSSYYWSWVRQAPGKGLEWVSTITGSGGSTDYANSVKGRFTISRDNSKNTLYLQMNSLRAEDTAVYYCATGGGIFDYWGQGTLVTVSS
VL: EIVLTQSPGTLSLSPGERATLSCQASQTISNYLNWYQQKPGQAPRLLIYDASNRATGIPDRFSGSGSGTDFTLTISRLEPEDFAVYYCQQYNSYPPSFGQGTKVEIK
notes: as for B1
In assay [1], B12 yielded an EC50 of no more than 0.2 µg/mL.

B13: anti-CD300c monoclonal antibody SK12 (antibody, V domains shown)
VH: RVQLLESGGGLVQPGGSLRLSCAASGFTFSSYAMHWVRQAPGKGLEWVSAISGSGGDTYHADSVKGRFTISRDNSKNTLYLQMNSLRAEDTAVYYCTRGLSGFDYWGQGTLVTVSS
VL: EIVLTQSPGTLSLSPGERATLSCRASQSISSYLNWYQQKPGQAPRLLIYDASNRAPGIPDRFSGSGSGTDFTLTISRLEPEDFAVYYCQQSYSIPITFGQGTKVEIKF
notes: as for B1
In assay [1], B13 gave a concentration giving a half-maximal response (EC50) of no more than 0.2 µg/mL.

B14: anti-CD300c monoclonal antibody SK14 (antibody, V domains shown)
VH: EVQLLESGGGLVQPGGSLRLSCAASGFTFSNFAIAWVRQAPGKGLEWVSAISGRGTSTYYADSVKGRFTISRDNSKNTLYLQMNSLRAEDTAVYYCARGVSGFDSWGQGTLVTVSS
VL: EIVLTQSPGTLSLSPGERATLSCRASQSISSHLAWYQQKPGQAPRLLIYDTSNRATGIPDRFSGSGSGTDFTLTISRLEPEDFAVYYCQQSYSTPFTFGQGTKVEIK
notes: as for B1
In turn, B14 came in with a concentration for a half-maximal effect (EC50) in assay [1] of no more than 0.2 µg/mL.

Source of the values: patent publication EP4349858A1 (CentricsBio, Inc., dated 2024).
